Results on 1 molecule are retold here after US20110009597A1, “RECOMBINANT GANODERMA LUCIDIUM IMMUNOMODULATORY PROTEIN (rLZ-8) AND USES THEREOF” (priority 2008, published 2011).

For data set [1], the system named is Mouse hepatoma cell strain H22. Kind of data set: H22 subcutaneous tumor inhibition experiment. The data set is classed as in vivo, Mice. The note with it: 10 days. The method, then: Mice, weight 18-22g, males and females were divided equally, from Jilin University Laboratory Animal Center. Mouse hepatoma cell strain H22, offered by our laboratory. Cyclophosphamide (CTX), offered by Jiangsu Hengrui Medicine Co., Ltd., lot number: 06101921.
H22 hepatoma cells experiment group were divided into normal control group, negative control group, positive control group, rLZ-8 low-dose treatment group (0.25 mg·kg^−1), rLZ-8 medium-dose treatment group (0.5 mg·kg^−1), rLZ-8 high-dose treatment group (1 mg·kg^−1). For each group 10 mice.
H22 subcutaneous tumor tumor inhibition experiment methods: Select well-growing 1-122 cells, dilute appropriately with sterile saline into a tumor cell suspension, cell counts for 10^7·L^−1, under the right armpit of each mouse inoculated subcutaneously 0.2 ml (except for the normal control group). Treatment after 24 h of vaccination. Normal control group and negative control group were given saline 0.2 ml·each^−1·d^−1, intraperitoneal injection; positive control group were given cyclophosphamide 20 mg·kg^−1, 0.2 ml·each^−1·d^−1, intraperitoneal injection. rLZ-8 treatment groups were given doses of tail venous injection respectively, 0.2 ml·each^−1·d^−1, in 10 consecutive days. Draw blood from orbital venous plexus 10 days before and after medication respectively, sent to Jilin University No. 1 Hospital clinical laboratory to test and analyze the number of WBC. Kill all the mice the next day of drug withdrawal at cervical dislocation, dissected anatomically and took out the tumors, weigh tumors, calculated the inhibition rate using the following equation:
Inhibition rate (%)=(average tumore weight of the control group−average tumor weight of the experiment group)/average tumor weight of the control group×100%

Data set [2] deals with K562. Kind of data set: PI single stained flow cytometry, apoptosis of K562. The data set is classed as cell-based. As to the method:
Fluorescence microscope, model Leica ASLMD, K562, NB4. rLZ-8 is classified into high, medium and low three-dose groups respectively, now we prepare them with IMDM culture medium containing 2% FCS into the preparation of 2.5 μg·ml^−1, 0.5 μg/ml, 0.1 μg·ml^−1. […] (PI) 50 μg·ml ^−1.
Establish K562 as the normal control group, rLZ-8 low-dose group (0.1 μg·ml^−1), rLZ-8 medium dose group (0.5 μg·ml^−1), rLZ-8 high-dose group, (2.5 μg·ml^−1); set NB4 as the normal control group, rLZ-8 low-dose group (0.1 μg·ml^−1), rLZ-8 medium dose group (0.5 μg·ml^−1), rLZ-8 high-dose group, (2.5 μg·ml^−1).
Mix K562 and NB4 cells into 24-orifice plate respectively, and supply rLZ-8 in different concentrates, 1 ml/orifice, set 3-orifice multipunches for each group. Put them in 37° C., 5% CO2 incubator for 24 h, collect the cells of each concentrate, PBS washes twice and regulates the cell density to 1×10^6/ml, 70% ice ethanol fixation, adjusts to −20° C. and stays overnight. Wash the cells with PBS twice after fixing the cells, add PI (end density 50 μg·ml^−1) for room temperature and lucifuged hatching 10 min, 1000 r·min^−1 centrifuge 5 min, clear supernatant with disposable 400μ. IPBS re-suspension precipitation. And test on computer in 1 h.
For orientation: Flow cytometry measures light scatter and fluorescence of single cells or particles in a stream.

In data set [3] the test system is human erythrocyte. The data set is classed as cell-based. As to the method: rLZ-8 prepares 5% of glucose solution into the preparation of 1 mg·ml^−1; blood cell suspension preparation: human blood 4 ml, 1000 r/min centrifugal 10 min, clears supernatant. […] Prepare the obtained erythrocyte with 5% glucose solution into 2% suspension for experiment.
Get 28 clean test tubes and number them, No. 1-5 for rLZ-8 drug group, No.6 for negative control group (5% glucose solution), No. 7 for positive control tube (distilled water), and a total of 4 parallel comparison tubes. By supplying 2% erythrocyte suspension, 5% glucose or distilled water in turn, shaking, put them into incubators 37° C.±0.5° C. immediately for incubation. Observe them every 15 min, 1 h after observe them once for 3 hours. Finishing the observation, put all the solution from the tubes into centrifugal drying tubes, 1500 r, 25 min. Clear the supernatant, read the blank distilled water tube for OD value to calculate the rate of hemolysis.

Data set [4] deals with human red blood cells (A, B, O and AB blood type). Kind of data set: Red blood cell agglutination, human. The data set is classed as cell-based. As to the method:
A, B, O and AB blood type, from the healthy volunteers 2 ml respectively, SRBC (sheep red cell) 2 ml. Centrifuge the above RBC 1200 g·min^−1 for 10 min, clears the supernatant and wash with 5 ml PBS, repeat the above operation 3-5 times, and then uses 0.01 mol/L PBS suspension preparation of 1.5%. Prepare rLZ-8 with normal saline to final concentrations of 50 μg·ml^−1, 25 μg·ml^−1, 12.5 μg·ml^−1, 6.25 μg·ml^−1, 1.56 μg·ml^−1, 0.78 μg·ml^−1, 0.39 μg·ml^−1, 0.20 μg·ml^−1, 0.10 μg·ml^−1, 0.05 μg·ml^−1, 0.03 μg·ml^−1. Plant agglutinin (PHA) preparation Ibid.
Divide experiment subjects into rLZ-8 concentration groups, positive drug control, and normal control group.
On 96-orifice Hemagglutination board, we add A-type 1.5%, erythrocyte 25 μl/hole, and then add 0.2% gelatin, 75 μl/hole. Drug groups are added different concentrations of rLZ-8, till the final concentration as above-noted; positive drug control group PHA 25 μl/hole; normal control group PBS25μl/hole. 6 parallel control groups in each group. Shaking for 30 s under normal room temperature, 37° C. incubation, observe the subjects 1 h later. For B-type, AB-type, O-type, the same experiment methods are as SRBC (sheep red cell) above.

Setting [5] is: rLZ-8 0.25 mg·kg^−1 tail venous injection.
[6] abbreviates: rLZ-8 0.5 mg·kg^−1 tail venous injection.
The mark [7] stands for this setting: rLZ-8 1 mg·kg^−1 tail venous injection.

B1: rLZ-8: Recombinant Ganoderma Lucidum Immune Regulatory Protein expressed in Pichia pastoris (protein, UniProt P14945 2-111, looked up)
Immunomodulatory protein Ling …: SDTALIFRLAWDVKKLSFDYTPNWGRGNPNNFIDTVTFPKVLTDKAYTYRVAVSGRNLGVKPSYAVESDGSQKVNFLEYNSGYGIADTNTIQVFVVDPDTNNDFIIAQWN
In the case of B1, the “Inhibition rate (%)” value in data set [1] (setting [5]) was found to be 16.7%; in data set [1] (setting [6]) it was 30.0%; in data set [1] (setting [7]), 42.5%. The “Tumor weight” value in data set [1] (setting [5]) is on record as 1.00 ± 0.03 g; in data set [1] (setting [6]), 0.84 ± 0.02 g; in data set [1] (setting [7]), 0.69 ± 0.03 g. Also, the Apoptosis rate in data set [2] (K562, rLZ-8 0.1 μg·ml^−1, 24 h) stood at 16.43%; in data set [2] (K562, rLZ-8 0.5 μg·ml^−1, 24 h), 17.91%; in data set [2] (K562, rLZ-8 2.5 μg·ml^−1, 24 h), 21.57%. Moreover, in data set [3], the hmolytic rate is < 5%. The “agglutination of four types of human red blood cells (in words)” value in data set [4] is recorded as “not agglutinative”.
